System: MS2 coat protein
Assay: apparent KD of MS2 coat protein; designed switch direction (-1 OFF switch, 1 ON switch): -1; higher = weaker reporter binding
In short: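 Designed RNA switches with common flanks were made on Illumina chips by stalled E. coli RNA polymerase. Titration with SNAP-549-labelled MS2 coat protein doubled from 0.7 or 1.5 nM up to 3 µM. Apparent KD is each design's median over clusters after curve-fitting normalised fluorescence.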

[1] = Eterna round: R95, input ligand: FMN 200 uM
[2] = Eterna round: R95, input ligand: microRNA oligo, concentration not stated
[3] = Eterna round: R95, input ligand: none
[4] = input ligand: microRNA oligo, concentration not stated

Sequence | apparent KD of MS2 coat protein [1] [nM] | apparent KD of MS2 coat protein [2] [nM] | apparent KD of MS2 coat protein [3] [nM] | apparent KD of MS2 coat protein (input ligand: FMN 200 uM) [nM] | apparent KD of MS2 coat protein (input ligand: none) [nM] | apparent KD of MS2 coat protein [4] [nM]
UUUUUCAGGCCAGAUCCUCACAUGAGGAUCACCCAUGUGCUCGUCUGUUUUCGCACUAGCUUUUUUUUGGUAGUGCU [Level Boss var2-15] (puzzle: Sensor v3, turn-off variant 1) | 280 | 28.4 | 325 | – | – | –
AAGUCGGCAGGAUAUACAUGAGGAUCACCCAUGUAAAUUUUUCGUUUAACUUGAAUGUGUAGAAGGGCCAUAAA [Ex3 #66] (Eterna round: R97, puzzle: Exclusion 3) | – | – | – | 24.3 | 24.5 | –
AGUUAUUCAGGAUAUGGUGUGUUAUACAUGAGGAUCACCCAUGUGGAUCCUGGUUAGGCCUCAGAAGGGAAUGUUA [salish99_ex5_r4_126] (Eterna round: R97, puzzle: Exclusion 5) | – | – | – | 412 | 435 | –
AUAAAUCAUGUAGGAUAUGCGUGGCGAAGCUAUGCAGAAGGACAUGAGGAUCACCCAUGUUCUAGCGUCUGAGUACAGAUGCAA [Mat - Exclusion NG 1 - Mod of JL - D3] (Eterna round: R96, puzzle: Exclusion NG 1) | – | – | – | 72.5 | 22.9 | 18.5
UUCGUGCAGCAAAGCUGUACGCGUACAUGAGGAUCACCCAUGUAGGAUAUGGUAGGCAAAGCUUACUAGAAGGAUAUGGUGAGC [Mat - Exclusion NG 3 - Mod of JL - D80] (Eterna round: R96, puzzle: Exclusion NG 3) | – | – | – | 51.9 | 35.2 | 36.8
UUGCCACAUGAGGAUCACCCAUGUGAGGAUAUGGCCCGCCCGGCGUGUGCUGGUUCUGUCAGAAGGCGCGUGGG [salish99_ex1_r4_030] (Eterna round: R97, puzzle: Exclusion 1) | – | – | – | 73 | 33.1 | –
CUUAGGUGAGGAUAUUAGUAGUAAAUAAAUAAAAUUAUUACUGAGAAGGCACAUGAGGAUCACCCAUGUUCCUC [Salish 062 v3] (Eterna round: R97, puzzle: Exclusion 4) | – | – | – | 548 | 37 | –
GAAAAGGUAGGAUAUACGAAAAUAAAGGGUAGAAAAAAAACACAUGAGGAUCACCCAUGUAGAAGGACCAAAAG [salish99_ex2_r3_083] (puzzle: Exclusion 2) | 68.3 | 33.4 | 36.4 | – | – | –
UCGCUGCGAGGAUAUACAUGAGGAUCACCCAUGUGCGGGUCCGGGUCUUCGUCCAUUGGUAGAAGGCGCAGUGA [JL Laongeedie mod 6] (puzzle: Exclusion 3) | – | 43 | – | – | – | –
GUUAUGUCAGGAUAUGCUAAUGAUGAGUGCUCAGACAUGAUGCAGAAGGGACAUGAGGAUCACCCAUGUACUAA [EX4 #11] (Eterna round: R97, puzzle: Exclusion 4) | – | – | – | 116 | 36.1 | –
GAGAGAUAGAUAGAGGACGACAUGAGGAUCACCCAUGUGAGGGAAAUGUUAAGGAGAAAGCUUUUUGCUCGUCUUAA [JR_SV3TOV1_Sub034] (puzzle: Sensor v3, turn-off variant 1) | 123 | 57.7 | 152 | – | – | –
CUCGUGUUAGGAUAUCUAUCGCGGAUGACAGAGAGGACGUUGGAGAAGGAACAUGAGGAUCACCCAUGUUCUGG [Eternabot (L2) Solution 86] (Eterna round: R97, puzzle: Exclusion 4) | – | – | – | 18.8 | 14.5 | –
ACCUAUGAGGAGGAUAUACGGUGCGAAAGGAUGGUAGAAGGCUUCACAUGAGGAUCACCCAUGUCUAUAAGCGA [EX6 #87] (Eterna round: R97, puzzle: Exclusion 6) | – | – | – | 27.8 | 18.3 | –
GUUAACGUAGGAUAUUAGUACAUGAACAUGAGGAUCACCCAUGUGAGGUGGGUCUAAGAAUAAGAAGGGCGAAGAA [EX5 #26] (Eterna round: R97, puzzle: Exclusion 5) | – | – | – | 317 | 312 | –
AUCCAGGCAGGAUAUUGCCGGUUGCACAUGAGGAUCACCCAUGUACUCCUAGGUCGAUGGCAAGAAGGGCUAUCCA [Eternabot (Original) Solution 24] (Eterna round: R97, puzzle: Exclusion 5) | – | – | – | 26.6 | 36 | –
CGUGUGUCAGGAUAUACGUUGGGCCAGCAUGGCUAAAGACAGUAGAAGGGACAUGAGGAUCACCCAUGUGGAGU [Eternabot (L2) Solution 4] (Eterna round: R97, puzzle: Exclusion 4) | – | – | – | 571 | 78.9 | –
GGUGAGCUAGGAUAUGCUUUGGGCUCGCUUUCCUUCGAUAAACUUGAGGAUCACCCAAGUAGAAGGAGCUUGCC [salish99_ex2_r4_033] (Eterna round: R97, puzzle: Exclusion 2) | – | – | – | 14.8 | 12 | –

Sequence | apparent KD of MS2 coat protein [1] [nM] | apparent KD of MS2 coat protein [2] [nM] | apparent KD of MS2 coat protein [3] [nM] | apparent KD of MS2 coat protein (input ligand: FMN 200 uM) [nM] | apparent KD of MS2 coat protein (input ligand: none) [nM] | apparent KD of MS2 coat protein [4] [nM]
AGUAGUUGUUUCCGUUCUUACAUGAGGAUCACCCAUGUUUCUUGUCGUGCUCGCGAUGCUCGUCAGACUACCAGAUG [salish99_TOv1_r3_059] (puzzle: Sensor v3, turn-off variant 1) | 53.4 | 65.7 | 72.8 | – | – | –
AUGGUUAGGUCAGGAUAUCGUUGAUUGAAUAGUAUGAUUUACAUGAGGAUCACCCAUGUUAUAUACGAGAAGGGACUUUAUCAU [JR_ExcNG2_Sub023] (Eterna round: R96, puzzle: Exclusion NG 2) | – | – | – | 9.77 | 18.6 | 8.77
AACCCGAUAGGAUAUACUUGAGGAUCACCCAAGUACGCCUGCAAUGCAAGCGCCUGAAGUAGAAGGAUCAAAAG [Gexetele] (Eterna round: R97, puzzle: Exclusion 3) | – | – | – | 21 | 31.1 | –
GGCCUGUAAGGAUAUUAGUAGUAGUCAGAAUAGACUAUUACUGAGAAGGUACAUGAGGAUCACCCAUGUUGGCC [Eli x4 4.06] (Eterna round: R97, puzzle: Exclusion 4) | – | – | – | 17.7 | 14 | –
GAUCACUGAGGAUAUACACAGAUACAAAGUAUCUGAUGGUGACAUGAGGAUCACCCAUGUAGAAGGCAGAGGUC [Omei Ex2 B7] (Eterna round: R97, puzzle: Exclusion 2) | – | – | – | 290 | 495 | –
GUGUGACAUGAGGAUCACCCAUGUGAGGAUAUUUAUGUUUGGUUGUUUAGUUGGGCGUGGAGAAGGCGCGUGCG [19% As] (Eterna round: R97, puzzle: Exclusion 1) | – | – | – | 65.6 | 85.1 | –
UCCUUGUUGGAGGAUAUGCAUAGCAUCACGCCUGUAGAAGGCCAAACAUGAGGAUCACCCAUGUGCAUGGGAUG [Eternabot (L1) Solution 77] (Eterna round: R97, puzzle: Exclusion 6) | – | – | – | 244 | 216 | –
AUAAUGUAAGGAUAUCAGUCGUACAGCUGCGGCUGUACGACUGAGAAGGUACAUGAGGAUCACCCAUGUGAUCA [E4/8-A3] (Eterna round: R97, puzzle: Exclusion 4) | – | – | – | 104 | 1380 | –
AGAUGGAUUGCUAGAAAACUAGUAAUUCAUCAAUCAAGCACAUGAGGAUCACCCAUGUCUUAGAGUACGUGAGUACA [JL gull wing 9] (Eterna round: R96, puzzle: Sensor v2, turn-off variant 2) | – | – | – | 12.8 | 16 | 12.5
UUUUUCGAACAAGCUACGUACAUGAGGAUCACCCAUGUUGGUAGAUUUGAGUAGGUUUGGAUGGAAGCUCGUCUUAU [JR_SV3TOV1_Sub083] (puzzle: Sensor v3, turn-off variant 1) | 19.2 | 44.5 | 21.4 | – | – | –
UUUUUAUUUUUUUAUUUUGACAUGAGGAUCACCCAUGUCACGAGCAGAUCUUCAUGCAAGCUUUUUGCUCGUCUUAU [Sensor v3 - Turn-off variant 1 - 40] (puzzle: Sensor v3, turn-off variant 1) | 58.3 | 141 | 98.4 | – | – | –
UAAUAAAGUGUGAGGAUAUGCUGGUCCAUAGAUCAGCAGAAGGCACAUGAGGAUCACCCAUGUAAUAUAUAAAU [Mat - Exclusion 4 - JL Mod - D57] (Eterna round: R96, puzzle: Brourd's mod of Exclusion 4) | – | – | – | – | – | 23.7
CCCGGGUUUGUAGGAUAUGCCCGCCUUUGGCGGGCAGAAGGACAUGAGGAUCACCCAUGUUGUAUAAACUUGGGAUGUUCCUCG [random4] (Eterna round: R96, puzzle: Exclusion NG 1) | – | – | – | 30.8 | 40.7 | 31.3
GACCUGUGAGGAUAUUAUUAAAGGCCAAGUUAGGCCUUAAUUGAGAAGGCACAUGAGGAUCACCCAUGUUUGAC [Eternabot (L2) Solution 55] (Eterna round: R97, puzzle: Exclusion 4) | – | – | – | 90.3 | 22.3 | –
AGUCCUGGAGUUAGGAUAUGGAGUAUCACUGCACUUCAGAAGGGACUUGAGGAUCACCCAAGUAGCCGUGAGGG [salish99_bmod_ex4_r4_004] (Eterna round: R97, puzzle: Brourd's mod of Exclusion 4) | – | – | – | 74.3 | 49.2 | –
ACAAGCUUAAUCAGUAUGAACAUGAGGAUCACCCAUGUAAAAGGGAAUACUAUUGGGUUUUUUAUAGCUCGUCUUAU [JR_STOV1_Sub018] (Eterna round: R97, puzzle: Sensor, turn-off variant 1) | – | – | – | 17.8 | 21.7 | –

From the supplement of paper PMC9170038
